# From patent US20240076389A1 (NATIONAL RESEARCH COUNCIL OF CANADA, published 2024)
# T1: human AXL expressed on the cell surface of tumor cell lines (human, UniProt P30530 26-894)
# T1 construct: whole, on cells; also called cell surface-expressed AXL; cell-based AXL
# T1 sequence (looked up): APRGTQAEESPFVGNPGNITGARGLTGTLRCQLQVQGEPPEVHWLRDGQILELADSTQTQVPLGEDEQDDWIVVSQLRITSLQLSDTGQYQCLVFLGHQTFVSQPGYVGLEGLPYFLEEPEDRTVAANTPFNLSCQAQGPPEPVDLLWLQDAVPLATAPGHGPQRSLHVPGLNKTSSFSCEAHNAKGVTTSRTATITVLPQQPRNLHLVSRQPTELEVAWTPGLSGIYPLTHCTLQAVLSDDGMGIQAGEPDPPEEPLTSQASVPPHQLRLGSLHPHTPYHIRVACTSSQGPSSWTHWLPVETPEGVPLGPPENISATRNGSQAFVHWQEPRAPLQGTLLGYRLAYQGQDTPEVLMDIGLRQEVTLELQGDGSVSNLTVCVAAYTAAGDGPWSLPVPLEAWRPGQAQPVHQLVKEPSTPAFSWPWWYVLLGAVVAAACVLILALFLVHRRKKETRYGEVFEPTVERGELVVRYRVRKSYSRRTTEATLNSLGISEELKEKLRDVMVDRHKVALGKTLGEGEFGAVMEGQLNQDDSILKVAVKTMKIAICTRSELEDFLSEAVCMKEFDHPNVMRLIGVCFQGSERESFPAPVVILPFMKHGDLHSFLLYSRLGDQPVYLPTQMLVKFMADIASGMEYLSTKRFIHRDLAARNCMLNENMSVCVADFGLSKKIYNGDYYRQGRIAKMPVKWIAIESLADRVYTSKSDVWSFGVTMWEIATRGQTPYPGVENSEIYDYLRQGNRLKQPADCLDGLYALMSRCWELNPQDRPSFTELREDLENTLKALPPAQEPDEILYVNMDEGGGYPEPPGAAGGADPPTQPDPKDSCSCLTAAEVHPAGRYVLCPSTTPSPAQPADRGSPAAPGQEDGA
# T2: mouse AXL extracellular domain (Sino cat. 51026-M08H) (mouse, UniProt Q00993 19-445)
# T2 construct: extracellular domain; Bought protein; also called mouse AXL ECD
# T2 sequence (looked up): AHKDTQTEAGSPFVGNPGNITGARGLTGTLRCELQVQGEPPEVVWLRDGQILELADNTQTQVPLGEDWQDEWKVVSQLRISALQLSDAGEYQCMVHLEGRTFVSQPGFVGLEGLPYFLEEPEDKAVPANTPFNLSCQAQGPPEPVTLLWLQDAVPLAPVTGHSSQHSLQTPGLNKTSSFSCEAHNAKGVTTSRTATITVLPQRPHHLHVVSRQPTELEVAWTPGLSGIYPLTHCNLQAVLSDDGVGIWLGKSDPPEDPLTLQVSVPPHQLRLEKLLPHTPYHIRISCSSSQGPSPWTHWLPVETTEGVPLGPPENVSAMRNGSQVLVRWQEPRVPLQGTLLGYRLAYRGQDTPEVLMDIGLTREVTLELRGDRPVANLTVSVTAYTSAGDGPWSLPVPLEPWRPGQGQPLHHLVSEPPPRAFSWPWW
# T3: recombinant human AXL extracellular domain, C-terminally His8-tagged (rhAXL-ECD) (human, UniProt P30530 26-451)
# T3 construct: Made in CHO cells; also called (rh)AXL-ECD His8; human AXL ECD
# T3 sequence: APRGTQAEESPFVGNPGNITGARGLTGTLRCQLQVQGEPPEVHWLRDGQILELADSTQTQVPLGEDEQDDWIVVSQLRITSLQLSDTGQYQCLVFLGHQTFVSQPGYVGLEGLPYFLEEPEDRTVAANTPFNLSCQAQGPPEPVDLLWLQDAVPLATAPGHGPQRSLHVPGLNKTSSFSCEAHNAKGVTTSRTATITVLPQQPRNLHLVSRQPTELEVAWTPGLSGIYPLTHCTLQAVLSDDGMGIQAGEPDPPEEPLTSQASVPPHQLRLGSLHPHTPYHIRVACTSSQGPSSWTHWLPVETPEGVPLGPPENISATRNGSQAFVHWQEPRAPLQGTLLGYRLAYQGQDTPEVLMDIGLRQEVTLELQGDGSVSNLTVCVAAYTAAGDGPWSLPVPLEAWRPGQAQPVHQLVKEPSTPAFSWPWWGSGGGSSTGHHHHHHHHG
# T4: huMER-ECD displayed on yeast (human, UniProt Q12866 21-505)
# T4 construct: extracellular domain
# T4 sequence (looked up): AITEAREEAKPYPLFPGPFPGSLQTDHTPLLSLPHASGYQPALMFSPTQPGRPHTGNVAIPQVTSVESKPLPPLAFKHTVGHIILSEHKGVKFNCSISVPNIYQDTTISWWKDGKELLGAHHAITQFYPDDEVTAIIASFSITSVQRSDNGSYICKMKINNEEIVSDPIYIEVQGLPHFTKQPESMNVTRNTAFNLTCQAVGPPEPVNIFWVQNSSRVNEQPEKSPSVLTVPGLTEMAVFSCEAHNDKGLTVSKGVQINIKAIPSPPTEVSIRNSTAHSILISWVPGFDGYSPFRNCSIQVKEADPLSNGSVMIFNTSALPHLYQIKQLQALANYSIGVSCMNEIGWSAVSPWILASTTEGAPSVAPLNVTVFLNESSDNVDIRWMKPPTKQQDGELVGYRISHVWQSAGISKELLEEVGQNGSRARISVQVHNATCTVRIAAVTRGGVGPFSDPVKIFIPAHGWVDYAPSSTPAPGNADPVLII
# T5: huTyro3-ECD displayed on yeast (human, UniProt Q06418 41-429)
# T5 construct: extracellular domain
# T5 sequence (looked up): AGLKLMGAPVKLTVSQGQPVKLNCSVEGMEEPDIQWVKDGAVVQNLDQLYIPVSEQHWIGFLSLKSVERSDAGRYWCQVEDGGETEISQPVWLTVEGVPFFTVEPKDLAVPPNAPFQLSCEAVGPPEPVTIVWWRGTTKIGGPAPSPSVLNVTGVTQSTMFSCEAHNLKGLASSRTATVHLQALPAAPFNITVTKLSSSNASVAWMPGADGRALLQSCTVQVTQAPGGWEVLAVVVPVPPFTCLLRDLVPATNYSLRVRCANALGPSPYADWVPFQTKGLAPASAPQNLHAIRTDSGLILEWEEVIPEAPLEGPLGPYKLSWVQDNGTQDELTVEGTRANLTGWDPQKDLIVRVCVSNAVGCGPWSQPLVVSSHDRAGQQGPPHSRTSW
# How the values were obtained:
# [1] = molecular target: T1, human AXL expressed on the cell surface …; assay: FACS on SKOV3 cells, apparent Kd, human Fc format
# Description: (§1) FACS binding assay. Adherent cells were dissociated with non-enzymatic Sigma Cell Dissociation Solution (Cat. No. C5789). Cells suspensions were added to polypropylene, V-bottom 96-well plates and incubated for 2 hours on ice with primary antibodies at concentrations ranging from 100 nM to 0.001 nM or at a single dose of 100 nM (for the non-specific control). After incubation and washes, cells were incubated with fluorescently labeled secondary antibody (Alexa Fluor® 488 anti-human IgG from Jackson Cat. No 709-546-098) for 1 hour on ice, then washed. Cell viability was determined using Fixable viability dye 450 (20 min on ice). Stained cells were fixed in 1% formaldehyde at 4° C. and stored at 4° C. until acquisition which was performed the next day.
# (§2) Binding of recombinant chimeric Abs to three cell lines was assessed by FACS as described above. The apparent Bmax and Kd determination is shown below in Table 14.
# [2] = molecular target: T2, mouse AXL extracellular domain (Sino …); assay: ELISA on coated mouse AXL ECD (100 ng/well), VHH-Fc
# Description: (§3) ELISA. ELISAs against human, cyno and mouse AXL ECDs were conducted by immobilizing 100 ng of each protein in wells of Nunc MaxiSorp microplates overnight. Human AXL (aa 1-451) and cyno AXL (aa 1-449) were produced recombinantly as described in Example 10. Mouse AXL was purchased from Sino (cat. 51026-M08H). The next day, plates were blocked with 5% (w/v) dried milk in PBS. Murine mAbs (either hybridoma- or recombinantly-produced) or VHH-Fcs were diluted in PBS containing 1% BSA and 0.1% Tween-20 and added to wells for 2 hours at room temperature. Wells were washed 5× with PBS containing 0.1% Tween-20, then HRP-labeled protein A (diluted 1:1000 in PBS containing 1% BSA and 0.1% Tween™-20) was added to wells for 1 hour at room temperature. Wells were washed again 5× with PBS/0.1% Tween-20 and developed using TMB substrate. Absorbance was measured at 450 nm. As a positive control for mouse AXL binding, a commercial anti-mouse AXL mAb (clone 175128, R&D Systems MAB8541, rat IgG2A) was used and detected with donkey […] secondary antibody.
# [3] = molecular target: T1, human AXL expressed on the cell surface …; assay: FACS on NCI-H292 cells, apparent Kd, human Fc format
# Description: as §1, §2
# [4] = molecular target: T3, recombinant human AXL extracellular …; assay: SPR, VHH-Fc captured, AXL ECD flowed, single-cycle kinetics
# Description: (§4) For VH Hs and VHH-Fcs, binding to human and cynomolgus AXL ECD was assessed using either a Biacore T200 instrument or a Biacore 3000 instrument. Either human AXL ECD or anti-human Fc antibody was immobilized on a research-grade CM5 series S sensor chip (T200, rhAXL ECD) or a C1 sensor chip (3000, anti-human Fc) using amine coupling in acetate buffer. VHH-Fcs were captured on anti-human Fc surfaces. Either monomeric VHHs (for rhAXL ECD surfaces) or human and cyno AXL ECD (for VHH-Fc surfaces) were flowed over the surfaces at different concentration ranges. Running buffers were HBS-EP (3000) and HBS-EP+(T200). Flow rates were 10-40 ul/min. All binding studies were performed at 25° C. Surfaces were regenerated using 10 mM glycine, pH 1.5.
# [5] = molecular target: T3, recombinant human AXL extracellular …; assay: ELISA on coated AXL ECD (100 ng/well), VHH-Fc, HRP-protein A
# Description: as §3
# [6] = molecular target: T1, human AXL expressed on the cell surface …; assay: FACS on MDA-MB-231 luciferase cells, apparent Kd, human Fc format
# Description: as §1, §2
# [7] = molecular target: T3, recombinant human AXL extracellular …; assay: SPR, VHH-Fc captured, AXL ECD flowed, single-concentration kinetics (estimate)
# Description: as §4
# [8] = molecular target: T6, cyAXL-ECD displayed on yeast; assay: yeast surface display ELISA, non-denatured yeast, goat anti-human F(ab')2-HRP
# T6 construct: extracellular domain; 'cy' read as cynomolgus
# [9] = molecular target: T4, huMER-ECD displayed on yeast; assay: as above
# [10] = molecular target: T5, huTyro3-ECD displayed on yeast; assay: as above
# [11] = molecular target: T1, human AXL expressed on the cell surface …; assay: cell-based or functional assay
# [12] = molecular target: T1, human AXL expressed on the cell surface …; assay: cell-based or functional assay; remark: listed apart in the source
binder,measurement,setting,value
"NRC-sdAb008-Fc (VHH-human IgG1 Fc fusion) (Fc fusion, VHH fused N-terminally to human IgG1 Fc; also called NRC-sdAb008-hIgG1; not shown: human IgG1 Fc) QVKLEESGGGLVQAGGSLRLSCAASGSSGMINTMGWYRQAPGKQRELVARRSTGGTTNYADSVKGRFTISRDDANNTVYLQMNSLKPEDTAVYYCAIIWRTSDLTGRFNTWGQGTQVTVSS",Kd,[1],54.9 pM
same,binding result,[2],no binding
same,Kd,[3],41.4 pM
same,Kd,[4],1000 pM
same,koff,[4],0.0033 s⁻¹
same,kon,[4],3.3e+06 M⁻¹ s⁻¹
same,EC50,[5],1000 pM
same,Kd,[6],122 pM
same,Kd,[7],2000 pM
same,koff,[7],0.0082 s⁻¹
same,kon,[7],5.3e+06 M⁻¹ s⁻¹
"NRC-sdAb003-Fc (VHH-human IgG1 Fc fusion) (Fc fusion, VHH fused N-terminally to human IgG1 Fc; also called NRC-sdAb0003-Fc; NRC-sdAb003-hIgG1; not shown: human IgG1 Fc) QVQLVESGGGLVQAGGSLRLSCAASGVTLDYTAIGWFRQAPGKERELVAAITSGGNTDYAESAKGRFRISRDNSKNTIYLQMNSLKPEDTGVYYCAARRGGARGEYDYWDQGTQVTVSS",yeast ELISA signal normalized to myc expression level,[8],0.668
same,yeast ELISA signal normalized to myc expression level,[9],-0.009
same,yeast ELISA signal normalized to myc expression level,[10],-0.005
"hFc-F107-10G1-DM1 (antibody, human IgG1, kappa, V domains shown, DM1 through SMCC linker on lysine residues; sites not given) VH: EVNLVESGGGVVKPGASLKLSCEASGFTFSNYGMSWVRQTSDKRLEWVASISGGGGRTYYLDNVKGRFIISRENAKNTLYLQMSSLKSEDTALFYCARGARASYFAMDYWGQGSSVTVSS VL: VIVMTQSHKFMSTSVGDRVSITCKASQDVTTAVAWYQQKPGQSPKLLIYWASTRHTGVPDRFTGSGSGTDYSLTISNVQTEDLAFYYCQQHFTTPLTFGAGTKLELKR","IC50 of growth inhibition (CellTiterGlo, 5 days) of NCI-H292 cells, -Gas6",[11],13 pM
same,"IC50 of growth inhibition of NCI-H292 cells, +Gas6 (2 µg/mL)",[11],460 pM
same,"IC50 (read off the curve), growth inhibition of H292 cells, without added Gas6 (circles)",[12],~4 pM
"NRC-sdAb002-Fc (VHH-human IgG1 Fc fusion) (Fc fusion, VHH fused N-terminally to human IgG1 Fc; also called NRC-sdAb0002-Fc; NRC-sdAb002-hIgG1; not shown: human IgG1 Fc) QVQLVDSGGGLVQAGGSLRLSCATSTRTVSSAVMAWFRQAPEKVRDFVGFITNSGNILYDDSVKGRFTISRDNAQNTVYLQMNSLKPEDTAVYYCAAKWSFSSGYGDLRRAAMYDYWGQGTQVTVSS",yeast ELISA signal normalized to myc expression level,[8],0.76
same,yeast ELISA signal normalized to myc expression level,[9],0.01
